# B1: LINE1-full (parent)
# chain: UACGUAGGUGGUUUUCCCCUGAUAGUGCUAAGGGGGCCUGGAAGUUUGGACUGGGCAGAGCUCAACACAGCGUGGCAAAGUGGCUGUGGCUAGACUGCCUCUCUGGAUUCCUCGUCACUCAGCAGGGCAUCUCUGAGAGAAAUGCC
# Variants of: B1
# Assay: self-cleavage, relative activity (ratio to wild type); higher = more cleavage; in vitro, sequencing; the parent is a self-cleaving ribozyme
row,Variant,self-cleavage
1,G34U U108C,1.56
2,U39C U115C,1.37
3,A77U G97A,0.07
4,U81C C95A,0.03
5,A24G U104A,1.24
6,G44A A140G,1.34
7,U39A C90G,0.04
8,A43G G70A,0.11
9,U134C C146U,1.65
10,U132G,1.52
11,U14C C16A,0.84
12,C3A U109C,0.53
13,U12C U14A,0.81
14,A31U U45G,1.5
15,A77U U81C,1.47
16,U102C U115A,1.51
17,A50G A79C,1.02
18,A64C U81C,0.38
19,G53A A67G,0.38
20,A117G G127A,2
21,C84G U100C,0.07
22,U15C U109C,1.43
23,G40A A65G,0.04
24,A64U A117G,0.53

row,Variant,self-cleavage
1,A6C U100C,0.66
2,U1C U23A,0.56
3,G32U U134C,0.74
4,U14C U104C,1.51
5,U87A U104C,0.11
6,U130C U132C,1.29
7,A2G U112C,0.87
8,U102A A124C,1.98
9,U46C U47A,1.37
10,C19A A69G,0.42
11,U1C G89U,0
12,U9C A117U,1.62
13,G105A U109C,1.46
14,C18A U119C,1.49
15,U87A U132C,0.07
16,A31U A94G,0.36
17,A57U A94C,0.1
18,A136U U143A,1.41
19,U15G A50G,0.18
20,C90U U132A,0.01
21,C90U U132C,0.03
22,A65U U108C,0.4
23,A79G G93A,0.04
24,G21A U115C,2.12

row,Variant,self-cleavage
1,A24G C116U,0.65
2,G106A A121G,1.78
3,U1C U87A,0.23
4,U9C U115A,1.55
5,C76U A107U,2.27
6,C76A A124G,0.92
7,G32A C128A,0.61
8,C146A,1.45
9,C18U G139U,1.11
10,U23A A79G,1.31
11,U20C A42G,1.25
12,U81A U119C,2.53
13,G93U U96C,0.06
14,U9C A107G,1.61
15,U1C U115A,0.98
16,A94G C145U,0.17
17,A64G G114U,0.24
18,A64U U102C,0.34
19,U20C A136U,1.51
20,U1C G7U,0.75
21,G75C U134A,0.49
22,U102C U108C,1.15
23,G72A U109A,1.37
24,U39C G54A,0.58

row,Variant,self-cleavage
1,U130A A142C,0.79
2,A117C G144A,1.79
3,U14C U45C,1.21
4,G58A A64G,0.03
5,A92G A129G,0
6,A31G C145G,1.63
7,G72C C111U,1.1
8,C76U G105C,2.51
9,U73G U134C,1.57
10,U39A G93A,0.04
11,U108C C131U,2.2
12,C131G,1.54
13,A2G U130C,0.56
14,G88C A141G,0.14
15,G36C U47C,0.92
16,U15C C128U,1.1
17,U115A A142G,0.9
18,A24G U115A,1.45
19,U47A C120A,1.36
20,U20G A69U,0
21,G10A C95A,0.03
22,G36C A57G,0.9
23,A30G U119A,1.01
24,U13C A136U,1.18

row,Variant,self-cleavage
1,U14C U91G,0.24
2,G40A A50U,0.84
3,U102C A124U,1.14
4,U85G C118U,0.14
5,U26A A138U,0.78
6,G44C U45C,1.02
7,U26C U73A,1.48
8,U45C G58A,0.04
9,U15A U52C,0.9
10,U15A U52G,1.23
11,U9G A22G,0.93
12,A64G G75A,0.17
13,G27A A42U,0.99
14,A92U G106U,0.62
15,G25A,1.21
16,G25C,1.4
17,A43C A78U,2.11
18,A24G U87C,0.19
19,U26C A107C,1.89
20,G33U A43G,0.64
21,U5C A142G,1.15
22,U85C U109G,0
23,U62G A78G,0.06
24,A24U U104A,0.65

row,Variant,self-cleavage
1,U20G A64U,0.71
2,G54U U119C,1.34
3,U45C U52C,0.95
4,C16U A121U,1.36
5,U14G C118U,1.84
6,U15C G127A,1.05
7,U14C C131A,1.15
8,U87A U102C,0.08
9,U47C U132A,0.93
10,G82A U87C,0.17
11,U52A C113U,1.41
12,G8A U132C,1.58
13,U12C G139A,0.94
14,U39A U109A,1.45
15,A6U U85C,0.4
16,U47G A77G,1.09
17,A31G U85C,0.33
18,U45C A129U,1.03
19,U15A U102A,1.05
20,U47A C84A,0.14
21,C84U U132C,0.14
22,A42G U85C,0.38
23,U62C A117U,0.03
24,U12C A67G,0.77

row,Variant,self-cleavage
1,G82A U102A,2.12
2,A69U U132A,0.06
3,U23C A140C,1.35
4,A30G U87A,0.16
5,U12C U81C,1.11
6,U14C C145G,0.63
7,A24G A136G,1.15
8,U13A C71G,0.2
9,U47C C113A,1.78
10,A31G G125U,0.96
11,U96A G97A,0.09
12,A24U A77G,2.22
13,U46A U96C,0.19
14,A43G G82A,1.31
15,A43G A64G,0.32
16,G83A U85G,0.1
17,U62C A78C,0
18,U46C A69U,0.07
19,U52C U112C,1.5
20,A79G A121G,1.21
21,U26A U91C,0.32
22,U29C A117G,0.44
23,G41U U100G,0.78
24,U20C U112C,1.4

row,Variant,self-cleavage
1,G35C A141G,0.61
2,U134A A140G,0.53
3,A64G U73G,0.15
4,U9C U52C,1.36
5,A22U A92G,0.05
6,U20C U85A,0.11
7,G53C,1.13
8,G35A A79G,1.36
9,C103A A117G,1.49
10,U39G A77G,1.53
11,U52A G88A,0.12
12,C84A A141G,0.09
13,U26C G72C,0
14,A57G U119C,1.4
15,G48A G122A,1.27
16,U13C C103U,1.06
17,U1A U20C,1.64
18,C76A U143A,1.65
19,A2G A94C,0.29
20,G75A A79G,0.83
21,U52C U109C,0.69
22,U5A U130C,0.96
23,U12G C116U,0.62
24,A92C G93U,0.06

row,Variant,self-cleavage
1,U62C U96A,0.03
2,U15A G40A,1.24
3,A30U A136G,1.4
4,A42U A94U,0.15
5,U9A U132C,1.04
6,U20G U132C,1.4
7,U115A U143C,1.54
8,G48A A117G,1.47
9,G58U U100C,0.09
10,U62G A141G,0.08
11,U26C U130G,1.61
12,C18A A94G,0.22
13,A69U G127C,0.12
14,U52G U143A,1.32
15,U9A A42C,0.56
16,A92U U102A,0.79
17,U23C U45A,1.25
18,U12A A141G,1.19
19,C19U A124G,0.88
20,A42G U130C,1.57
21,A42G U130A,1.47
22,U45C U104C,1.42
23,A22U U73A,1.52
24,A42G U112A,2.01

row,Variant,self-cleavage
1,A136U A142C,1.43
2,A43G G74A,1.17
3,C51U U85A,0.09
4,U109C C113A,0.99
5,A22U U62C,0.13
6,U29A U52C,1.3
7,U46A U134C,1.84
8,U12A A121G,1.43
9,C16U U119A,1.17
10,A92G U112A,0.09
11,A107G U119C,1.31
12,G88A A124G,0.06
13,U20A G137U,0.85
14,G33U G144A,1.21
15,U112C G126A,1.64
16,A6C A121U,1.18
17,G4U U73C,2.45
18,A2G G105U,1.3
19,U20A G41C,0.73
20,U1C G8A,0.49
21,C3G A78G,0.6
22,G35A A140G,0.81
23,U14C U100G,1.38
24,U62A A77G,0.07

row,Variant,self-cleavage
1,A24G U46G,1.28
2,A42G G72A,1.11
3,A31U G33C,0.81
4,A142G U143C,1.31
5,A24G U102A,1.15
6,U81A A124G,1.55
7,C19U G105U,1.55
8,A24G U45G,0
9,U81C C133A,0.9
10,U5C G127C,1.12
11,G60A U112A,0.04
12,A57G C120U,1.54
13,A92G A94G,0.12
14,G4A A92G,0
15,G34A C37U,1.1
16,G36A A79G,0.96
17,U73G U102A,1.22
18,U9A G80A,1.92
19,U29A U132C,0.59
20,U29A U132A,1.09
21,G36A U62C,0.05
22,C71U U100A,0.04
23,U23C A43U,1.06
24,C19U A138G,1.01

row,Variant,self-cleavage
1,A65G C111U,0.06
2,U109C A142G,0.77
3,U45C U100C,1.93
4,U26A G74U,1.94
5,A59U U73A,0.94
6,C19U A140G,0.92
7,G55A C111U,0.3
8,U13C U46A,1.13
9,U26C U143C,1.07
10,U96G U132C,0.16
11,C84U A121G,0.2
12,G4A U46A,1.17
13,G4C G135A,0.56
14,C128A A141G,1.01
15,G33A,1.14
16,G106U,1.05
17,G41A A79U,1.28
18,U20A C38U,0.87
19,G32C U85C,0.27
20,U23A A31G,0.93
21,U52A A140U,1.57
22,G82A U108C,2.48
23,G49A U91G,0.04
24,U29C U102A,1.84

row,Variant,self-cleavage
1,U45C C120G,2.05
2,A65G A92U,0.1
3,A79G U102G,0.49
4,U45C U73A,1.68
5,G4U,1.25
6,U119C A124U,1.58
7,U26C U47A,1.16
8,U12A U104A,1.19
9,G27A U46C,0.7
10,U102C A136U,1.8
11,U12C U112C,1.26
12,U52A A124G,1.07
13,G32U U143C,1.1
14,A30G A79U,0.5
15,U29C A64C,0.61
16,G114A A138G,1.47
17,A50U A79G,1.27
18,A2C A141G,0.9
19,U102C A129G,1.51
20,U104A A138G,1.34
21,C16A A129U,1.15
22,U14C U108C,1.44
23,G125A A129C,1.36
24,A2G U9A,0.56

row,Variant,self-cleavage
1,A67G G122A,0.54
2,C68U A141G,0.3
3,A65U G97A,0.04
4,U5A G125U,0.15
5,G10A U62C,0.06
6,C95A U115C,0.11
7,A78G U96C,0.1
8,A42U A138G,1.28
9,G80U U87A,0.08
10,U47C A78C,1.96
11,A136G U143A,1.34
12,G72A A138G,1.51
13,A79U U132C,2.24
14,C3U U143C,0.62
15,A121U G125A,1.23
16,U52G,1.45
17,U52C A69G,0.11
18,A42G U102A,1.38
19,C19U A77G,1.68
20,U29G U104A,1.6
21,U9A U15A,1.07
22,U23A A140G,1.41
